Positions of bridges follow the written chain, without caps; N, C: chain ends. Non-standard residues stand in square brackets, D forms with d. Primed or numbered codes have the meaning given here. No end group written: not given here. *: point of attachment. FITC = O=C1OC2(c3ccc(O)cc3Oc3cc(O)ccc32)c2ccc(NC(=S)*)cc21; trimesoyl″ = benzene-1,3,5-tricarbonyl scaffold; FITC′ = fluorescein isothiocyanate, on Lys NZ; Phe(3,4-F2) = N[C@@H](Cc1ccc(F)c(F)c1)C(=O)O; Phe(4-Cl) = N[C@@H](Cc1ccc(Cl)cc1)C(=O)O; Phe(4-F) = N[C@@H](Cc1ccc(F)cc1)C(=O)O; 2Nal = N[C@@H](Cc1ccc2ccccc2c1)C(=O)O; Phg = N[C@H](C(=O)O)c1ccccc1; Nle = CCCC[C@H](N)C(=O)O; Orn = NCCC[C@H](N)C(=O)O; Abu = CC[C@H](N)C(=O)O; Dap = NC[C@H](N)C(=O)O
These binders were tested against T1, Recombinant TNFα containing an N-terminal 13-aa ybbR tag (human, UniProt P01375 77-233, biotin at the ybbR tag in the ELISA assays) (assay: FA, FITC-peptide + TNFα titration).
T1 construct: Expressed in E. coli; Same construct used unlabelled (FA) and biotinylated on NeutrAvidin (ELISA); also called tumor necrosis factor-alpha; human TNFα; not shown: N-terminal 13-aa ybbR tag
T1 sequence (P01375 77-233): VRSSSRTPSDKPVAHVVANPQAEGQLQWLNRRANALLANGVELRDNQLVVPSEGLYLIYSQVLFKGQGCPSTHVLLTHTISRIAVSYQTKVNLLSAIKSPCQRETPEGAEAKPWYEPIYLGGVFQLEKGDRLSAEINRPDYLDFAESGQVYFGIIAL
Method: (§1) The FA values were measured on a Molecular Devices Spectramax M5 spectrofluorimeter, with excitation and emission wavelengths at 485 and 525 nm, respectively. Equilibrium dissociation constants (KD) were determined by plotting the FA values as a function of TNFα concentration and fitting the data to the following equation $$Y = \frac{\left(Amin + \left(Amax \times \frac{Q_b}{Q_f} - Amin\right)\left(\frac{(L+x+K_d) - \sqrt{((L+x+K_d)^2 - 4Lx)}}{2L}\right)\right)}{\left(1 + \left(\frac{Q_b}{Q_f} - 1\right)\left(\frac{(L+x+K_d) - \sqrt{((L+x+K_d)^2 - 4Lx)}}{2L}\right)\right)}$$
(§2) where Y is the measured anisotropy at a given TNFα concentration x; L is the bicyclic peptide concentration; Qb/Qf is the correction fact for dye-protein interaction; Amax is the maximum anisotropy when all the peptides are bound to TNFα, while $Amin$ is the minimum anisotropy. […] The FA values were plotted against the competitor peptide concentration to determine the IC$50$ values.

Binder | Kd [µM]
[Nle][Phe(4-F)][dS]KY[dF]G[dK]H[Dap]K(FITC′)-NH2 (bridge (positions not given here) via trimesoyl″; not fully specified (N-terminus, bridges)) [C1-23] | 1.2
[Nle][Phe(4-F)][dS]KY[dQ]G[dK]H[Dap]K(FITC)-NH2 (linker N-4-10 via trimesoyl″) [C1-37] | 1.3
[Nle][Phe(4-Cl)][dS]KY[dH]G[dK]H[Dap]K(FITC)-NH2 (linker N-4-10 via trimesoyl″) [C1-40] | 4.1
[Nle][Phe(4-F)][dS]KY[dH]G[dK]H[Dap]K(FITC)-NH2 (linker (positions not given here) via trimesoyl″; not fully specified (bridges)) [C1-39] | 1.7
[Nle][Phe(4-Cl)][dS]KY[dF]G[dK]H[Dap]K(FITC)-NH2 (linker N-4-10 via trimesoyl″) [C1-24] | 4.8
[Nle]Y[dS]KY[dQ]G[dK]H[Dap]K(FITC)-NH2 (linker N-4-10 via trimesoyl″) [C1-32] | 1.3
[Nle]L[dS]KY[dF]G[dK]H[Dap]K(FITC)-NH2 (linker N-4-10 via trimesoyl″) [C1-27] | 3.7
[Nle]Y[dS]KY[dY]G[dK]H[Dap]K(FITC)-NH2 (linker N-4-10 via trimesoyl″) [C1-29] | 2
[Nle]H[dS]KY[dF]G[dK]H[Dap]K(FITC)-NH2 (linker N-4-10 via trimesoyl″) [C1-26] | 2.1
[Nle]W[dS]KY[dH]G[dK]H[Dap]K(FITC)-NH2 (linker N-4-10 via trimesoyl″) [C1-41] | 0.43
[Nle]Q[dS]KY[dF]G[dK]H[Dap]K(FITC)-NH2 (linker N-4-10 via trimesoyl″) [C1-28] | 4.3
[Nle]F[dS]KY[dF]G[dK]H[Dap]K(FITC′)-NH2 (linker (positions not given here) via trimesoyl″; not fully specified (N-terminus, bridges)) [C1-22] | 1.7
[Nle]Y[dS]KY[dL]G[dK]H[Dap]K(FITC)-NH2 (linker N-4-10 via trimesoyl″) [C1-31] | 2.5
[Nle]Y[dS]K[Phe(4-Cl)][dH]G[dK]H[Dap]K(FITC)-NH2 (linker N-4-10 via trimesoyl″) [C1-34] | 1.6
[Nle]Y[dS]K[2Nal][dH]G[dK]H[Dap]K(FITC)-NH2 (linker N-4-10 via trimesoyl″) [C1-36] | 1.3
[Nle]Y[dS]K[Phe(4-F)][dH]G[dK]H[Dap]K(FITC)-NH2 (linker N-4-10 via trimesoyl″) [C1-33] | 0.76
[Nle][Phe(3,4-F2)][dS]KY[dF]G[dK]H[Dap]K(FITC)-NH2 (linker N-4-10 via trimesoyl″) [C1-25] | 5.4

What follows are binders tested against T1, Recombinant TNFα containing an … (assay: FA).
Method: as §1, §2

Binder | fold reduction in affinity against C1-35 [fold] | fold decrease in TNFα binding against C1 (Phg at position-1) [fold]
[Nle]Y[dS]KW[dH]G[dK]H[Dap]RK(FITC)-NH2 (linker N-4-10 via trimesoyl″, C1-35 core with R11 as printed) [C1-53] | > 40 | –
RY[dA]KY[dF]G[dK]H[Dap]K(FITC′)-NH2 (bridge (positions not given here) via trimesoyl″; not fully specified (N-terminus, bridges)) [C1-10] | – | ≥ 5

Target: T1, Recombinant TNFα containing an …
Assay: FA, FITC-peptide + TNFα titration
Remark: another data set of the same source
Method: as §1, §2

Binder | Kd [µM]
[Phg]Y[dA]KY[dF]G[dK]H[Dap]K(FITC′)-NH2 (linker (positions not given here) via trimesoyl″; not fully specified (N-terminus, bridges)) [Anticachexin C1, Lys(FITC)-labelled (Table 2)] | 1.4
[Abu]Y[dA]KY[dF]G[dK]H[Dap]K(FITC)-NH2 (linker N-4-10 via trimesoyl″) [C1-3] | 2
[Nle]Y[dN]KY[dF]G[dK]H[Dap]K(FITC′)-NH2 (linker (positions not given here) via trimesoyl″; not fully specified (N-terminus, bridges)) [C1-12] | 1.4
[Nle]YSKY[dF]G[dK]H[Dap]K(FITC′)-NH2 (linker (positions not given here) via trimesoyl″; not fully specified (N-terminus, bridges), L-Ser at position 3) [C1-19] | 6.8
[Nle]Y[dS][Orn]Y[dF]G[dK]H[Dap]K(FITC′)-NH2 (linker (positions not given here) via trimesoyl″; not fully specified (N-terminus, bridges)) [C1-20] | 3.5
[Nle]Y[dS][Dap]Y[dF]G[dK]H[Dap]K(FITC′)-NH2 (linker (positions not given here) via trimesoyl″; not fully specified (N-terminus, bridges)) [C1-21] | 5.9
VY[dA]KY[dF]G[dK]H[Dap]K(FITC)-NH2 (linker (positions not given here) via trimesoyl″; not fully specified (bridges)) [C1-4] | 1.7
LY[dN]KY[dF]G[dK]H[Dap]K(FITC′)-NH2 (linker (positions not given here) via trimesoyl″; not fully specified (N-terminus, bridges)) [C1-16] | 2.7
FY[dN]KY[dF]G[dK]H[Dap]K(FITC′)-NH2 (linker (positions not given here) via trimesoyl″; not fully specified (N-terminus, bridges)) [C1-17] | 2.2
VY[dN]KY[dF]G[dK]H[Dap]K(FITC′)-NH2 (linker (positions not given here) via trimesoyl″; not fully specified (N-terminus, bridges)) [C1-15] | 3.2
AY[dA]KY[dF]G[dK]H[Dap]K(FITC′)-NH2 (linker (positions not given here) via trimesoyl″; not fully specified (N-terminus, bridges)) [C1-2] | 1.8
VY[dS]KY[dF]G[dK]H[Dap]K(FITC′)-NH2 (linker (positions not given here) via trimesoyl″; not fully specified (N-terminus, bridges)) [C1-13] | 2.4
VY[dT]KY[dF]G[dK]H[Dap]K(FITC′)-NH2 (linker (positions not given here) via trimesoyl″; not fully specified (N-terminus, bridges)) [C1-14] | 2.9
[Phg]Y[dA]KY[dF]G[dK]H[Dap]NNNK(FITC′)-NH2 (bridge (positions not given here) via trimesoyl″; not fully specified (N-terminus, bridges); also: feature: K4 labeled with FITC, also called C1-NNNK(FITC); NNNK-tagged anticachexin C1) [Asn-Asn-Asn-Lys(FITC)-labeled anticachexin C1] | 0.8
